For 22 sequences, self-aminoacylation results are on record in the supplement of paper PMC9233669.

Fewer inactive variants are shown than the library holds.

For data set [1], the system named is biotinyl-Phe-oxazolone. The data set is described as follows: self-aminoacylation, catalytic enhancement (BFO) (fold over background); higher = more active; k-Seq, kA / k0A0; sequences stand for … in GGGAAUGGAUCCACAUCUACGAAUUC…UUCACUGCAGACUUGACGAAGCUG
An outline of the steps: (§1)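 Mutagenized RNA pools (0.43 μM; 21-nt variable region) were treated with 2–1250 μM of each biotinyl-aminoacyl-oxazolone. Conditions were 50 μL HEPES/NaCl/KCl/MgCl2/CaCl2 buffer, 5% acetonitrile, pH 6.9–7.0, room temperature, 90 minutes. Catalytic enhancement, the median kA relative to the uncatalyzed rate, was derived from streptavidin capture, qPCR and Illumina sequencing.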

The test system of data set [2] is biotinyl-Met-oxazolone. The data set is described as follows: self-aminoacylation, catalytic enhancement (BMO) (fold over background); higher = more active; k-Seq, kA / k0A0; sequences stand for … in GGGAAUGGAUCCACAUCUACGAAUUC…UUCACUGCAGACUUGACGAAGCUG
In outline:
as §1

For data set [3], the system named is biotinyl-Ile-oxazolone. Description: self-aminoacylation, catalytic enhancement (BIO) (fold over background); higher = more active; k-Seq, kA / k0A0; sequences stand for … in GGGAAUGGAUCCACAUCUACGAAUUC…UUCACUGCAGACUUGACGAAGCUG
An outline of the steps:
as §1

For data set [4], the system named is biotinyl-Val-oxazolone. Description: self-aminoacylation, catalytic enhancement (BVO) (fold over background); higher = more active; k-Seq, kA / k0A0; sequences stand for … in GGGAAUGGAUCCACAUCUACGAAUUC…UUCACUGCAGACUUGACGAAGCUG
An outline of the steps: as §1

Data set [5] has as its system biotinyl-Leu-oxazolone. The data set is described as follows: self-aminoacylation, catalytic enhancement (BLO) (fold over background); higher = more active; k-Seq, kA / k0A0; sequences stand for … in GGGAAUGGAUCCACAUCUACGAAUUC…UUCACUGCAGACUUGACGAAGCUG
An outline of the steps: as §1

Data set [6] concerns biotinyl-Trp-oxazolone. The data set is described as follows: self-aminoacylation, catalytic enhancement (BWO) (fold over background); higher = more active; k-Seq, kA / k0A0; sequences stand for … in GGGAAUGGAUCCACAUCUACGAAUUC…UUCACUGCAGACUUGACGAAGCUG
In outline: as §1

Turning to “AUCCACCUAGUUCAUCGGGUG [Fam2.2 aminoacylation ribozyme variant]”, the self-aminoacylation in data set [1] stood at 24.1; in data set [2], 3.53; in data set [3], 2.9; in data set [4], 3.24; in data set [5], 4.83; in data set [6] it was 4.63.
For the sequence “CUCCUCCAAACAAUCGGUCUG [Fam1A.1 aminoacylation ribozyme variant]”, the self-aminoacylation in data set [1] is 2.28; in data set [2], 0.973; in data set [3], 1.06; in data set [4], 0.846; in data set [5] it was 0.846; in data set [6] it was 2.85.
Regarding “AAGUUUGCUAACAGUCGAAAG [Fam3.1 aminoacylation ribozyme variant]”, the self-aminoacylation in data set [1] worked out at 5.73; in data set [2], 0.838; in data set [3], 0.878; in data set [4], 0.848; in data set [5], 0.689; in data set [6] it was 2.
Consider “CUACCUCAAACGAUCGGUCUG [Fam1A.1 aminoacylation ribozyme variant]”, for which the self-aminoacylation in data set [1] worked out at 1.42; in data set [2] it was 1; in data set [3], 0.987; in data set [4], 0.761; in data set [5], 1.03; in data set [6] it was 0.954.
On to “AUGCACCUAGGGCAUCGGGUG [Fam2.2 aminoacylation ribozyme variant]”, for which the self-aminoacylation worked out at 30.6 in data set [1]; 3.04 in data set [2]; 2.89 in data set [3]; 3.46 in data set [4]; 3.16 in data set [5]; 4.75 in data set [6].
In the case of “UAGCUUGCUAAUAGUCGCAAG [Fam3.1 aminoacylation ribozyme variant]”, the self-aminoacylation stood at 3.65 in data set [1]; 1.88 in data set [2]; 2.34 in data set [3]; 2.22 in data set [4]; 1.8 in data set [5]; 1.84 in data set [6].
In the case of “AUUACCCUGGUCAACGACUGA [Fam2.1 aminoacylation ribozyme variant]”, the self-aminoacylation in data set [1] is 0.635; in data set [2] it was 0.47; in data set [3], 0.653; in data set [4], 0.66; in data set [5], 0.523; in data set [6], 0.514.
With “GUUCACCUAGGUCCUCGGGUG [Fam2.2 aminoacylation ribozyme variant]”, the self-aminoacylation in data set [1] was found to be 25.5; in data set [2], 4.16; in data set [3], 3.49; in data set [4], 4.16; in data set [5], 4.67; in data set [6], 5.27.
In the case of “AUUACCCGGGUCAUCGAAUGA [Fam2.1 aminoacylation ribozyme variant]”, the self-aminoacylation in data set [1] stood at 0.592; in data set [2], 0.972; in data set [3], 1; in data set [4] it was 1.29; in data set [5], 1.25; in data set [6], 0.515.
As to “CUUCACCGAGGUCAUCGGGUG [Fam2.2 aminoacylation ribozyme variant]”, the self-aminoacylation amounted to 59.7 in data set [1]; 6.2 in data set [2]; 3.01 in data set [3]; 4.68 in data set [4]; 7.45 in data set [5]; 5.44 in data set [6].
Take “AAAUUUGCUUAUAGUCGCAAG [Fam3.1 aminoacylation ribozyme variant]”: the self-aminoacylation in data set [1] is 2.37; in data set [2] it was 1.91; in data set [3], 2.26; in data set [4], 1.59; in data set [5], 1.93; in data set [6], 2.14.
Regarding “CUACUUCAAACGAUCAGUCUG [Fam1A.1 aminoacylation ribozyme variant]”, the self-aminoacylation in data set [1] was 1.22; in data set [2], 0.593; in data set [3], 0.633; in data set [4] it was 0.751; in data set [5], 0.549; in data set [6] it was 0.734.
On to “AUACCUCAAACAAUCGGUCUG [Fam1A.1 aminoacylation ribozyme variant]”, for which the self-aminoacylation in data set [1] is 4.92; in data set [2], 0.919; in data set [3] it was 0.977; in data set [4], 0.92; in data set [5], 0.934; in data set [6], 1.52.
For the sequence “AUUCACCUAGGUCAUCGGGAU [Fam2.2 aminoacylation ribozyme variant]”, the self-aminoacylation was 18.7 in data set [1]; 6.11 in data set [2]; 3.59 in data set [3]; 3.4 in data set [4]; 9.22 in data set [5]; 5.12 in data set [6].
Regarding “CUUACCCUGGUCAUCGAGUCA [Fam2.1 aminoacylation ribozyme variant]”, the self-aminoacylation came out at 0.627 in data set [1]; 0.897 in data set [2]; 0.742 in data set [3]; 1.07 in data set [4]; 0.705 in data set [5]; 0.547 in data set [6].
With “ACUCACCUGGGUCAUCGGGUG [Fam2.2 aminoacylation ribozyme variant]”, the self-aminoacylation amounted to 38.9 in data set [1]; 4.83 in data set [2]; 4.86 in data set [3]; 4.66 in data set [4]; 5.61 in data set [5]; 8.05 in data set [6].
Regarding “GCACACCUCAAGCAAUCGGUC [Fam1B.1 aminoacylation ribozyme variant]”, the self-aminoacylation in data set [1] amounted to 2.09; in data set [2], 1.3; in data set [3] it was 1.4; in data set [4], 1.73; in data set [5] it was 1.23; in data set [6], 2.46.
For “AUUACGGUGGUCAUCGAGUGA [Fam2.1 aminoacylation ribozyme variant]”, the self-aminoacylation in data set [1] was 5.75; in data set [2], 2.68; in data set [3], 2.44; in data set [4] it was 2.09; in data set [5] it was 2.56; in data set [6] it was 3.24.
Turning to “AUUAGCCUAGGUCAUCGGGUG [Fam2.2 aminoacylation ribozyme variant]”, the self-aminoacylation is 219 in data set [1]; 30.9 in data set [2]; 19 in data set [3]; 15.8 in data set [4]; 41.9 in data set [5]; 23.3 in data set [6].
With “AAGUUUGUCAAUAGUCGCAAG [Fam3.1 aminoacylation ribozyme variant]”, the self-aminoacylation is 3.72 in data set [1]; 1.87 in data set [2]; 2.03 in data set [3]; 1.78 in data set [4]; 2.25 in data set [5]; 1.95 in data set [6].
As for “AAGUUAGCUAAUAGUCGCAGG [Fam3.1 aminoacylation ribozyme variant]”, the self-aminoacylation in data set [1] was found to be 4.27; in data set [2], 1.6; in data set [3] it was 1.76; in data set [4] it was 1.8; in data set [5] it was 1.62; in data set [6] it was 1.77.
As for “CUCACCCUGGUCAUCGAGUGA [Fam2.1 aminoacylation ribozyme variant]”, the self-aminoacylation in data set [1] turned out to be 27.1; in data set [2] it was 5.33; in data set [3] it was 3.71; in data set [4], 4.49; in data set [5], 7.38; in data set [6], 6.74.
